Data published in publication PMC12307654, “Time-dependent catalytic activity in aging condensates” (Nature Communications, 2025).

Substrate: C=C(O[C@H]1C=C[C@H](C(=O)CCC(=O)O)[C@@H](C(=O)O)[C@@H]1O)C(=O)O
Experiment: purified protein
Format: biochemical, Escherichia coli
Conditions: free enzyme without scaffold, 20 mM Tris, 150 mM NaCl, 0.5 mM AEBSF, 0.1 mM DTT, 0.1% Triton X-100, 10% glycerol, pH 7.4, room temperature

B1: MenH-RIDD (Escherichia coli K-12) (protein)
chain: MILHAQAKHGKPGLPWLVFLHGFSGDCHEWQEVGEAFADYSRLYVDLPGHGGSAAISVDGFDDVTDLLRKTLVSYNILDFWLVGYSLGGRVAMMAACQGLAGLCGVIVEGGHPGLQNAEQRAERQRSDRQWVQRFLTEPLTAVFADWYQQPVFASLNDDQRRELVALRSNNNGATLAAMLEATSLAVQPDLRANLSARTFAFYYLCGERDSKFRALAAELAADCHVIPRAGHNAHRENPAGVIASLAQILRF
notes: full-length MenH fused to the RIDD docking peptide tag; gene from laboratory stock; free enzyme without FIB1-GFP-RIAD scaffold
Q: Which Km does the source give for B1 here?
A: 12.75 ± 1.68 µM

Q: And the kcat?
A: 1.536 ± 0.0972 s⁻¹
